T1: ApoE4 amino acids 54-164, expressed on yeast (human, UniProt P02649 72-182)
T1 construct: with myc tag, on yeast cells; expression in yeast printed as Low; range counts on the mature protein; also called helix2 + 3 + 4
T1 chain: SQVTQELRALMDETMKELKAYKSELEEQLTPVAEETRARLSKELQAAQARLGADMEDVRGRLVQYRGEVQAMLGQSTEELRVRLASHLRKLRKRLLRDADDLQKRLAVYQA

T2: ApoE4 amino acids 24-164, expressed on yeast (human, UniProt P02649 42-182)
T2 construct: with myc tag, on yeast cells; range counts on the mature protein; also called helix1 + 2 + 3 + 4
T2 chain: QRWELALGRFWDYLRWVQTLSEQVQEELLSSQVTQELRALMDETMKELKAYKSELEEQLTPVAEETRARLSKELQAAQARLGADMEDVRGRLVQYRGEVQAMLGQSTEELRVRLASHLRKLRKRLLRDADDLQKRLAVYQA

T3: ApoE4 amino acids 1-210, expressed on yeast (human, UniProt P02649 19-228)
T3 construct: with myc tag, on yeast cells; range counts on the mature protein; also called N terminal domain; not shown: myc tag and yeast surface-display partner
T3 chain: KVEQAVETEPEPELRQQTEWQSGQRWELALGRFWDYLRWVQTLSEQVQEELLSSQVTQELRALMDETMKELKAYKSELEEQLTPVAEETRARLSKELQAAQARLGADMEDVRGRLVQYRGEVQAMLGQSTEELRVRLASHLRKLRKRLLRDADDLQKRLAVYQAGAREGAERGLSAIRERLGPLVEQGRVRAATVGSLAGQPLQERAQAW

T4: ApoE4 amino acids 1-164, expressed on yeast (human, UniProt P02649 19-182)
T4 construct: with myc tag, on yeast cells; range counts on the mature protein; also called up to helix 4; not shown: myc tag and yeast surface-display partner
T4 chain: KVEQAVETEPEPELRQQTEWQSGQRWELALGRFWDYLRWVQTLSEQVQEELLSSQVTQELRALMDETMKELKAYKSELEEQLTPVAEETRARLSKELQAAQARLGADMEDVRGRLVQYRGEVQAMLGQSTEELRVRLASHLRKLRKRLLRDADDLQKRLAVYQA

T5: murine ApoE (mouse, UniProt P08226 19-311)
T5 sequence (looked up): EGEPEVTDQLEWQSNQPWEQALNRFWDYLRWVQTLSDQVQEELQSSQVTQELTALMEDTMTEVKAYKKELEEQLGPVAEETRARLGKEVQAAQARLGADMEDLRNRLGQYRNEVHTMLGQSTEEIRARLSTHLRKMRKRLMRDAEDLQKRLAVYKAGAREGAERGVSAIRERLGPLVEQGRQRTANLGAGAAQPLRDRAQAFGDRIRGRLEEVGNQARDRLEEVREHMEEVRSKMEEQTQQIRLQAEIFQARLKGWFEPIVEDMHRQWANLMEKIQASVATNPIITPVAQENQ

B1: HJ152 (antibody, V domains shown)
VH: EVKLEESGGGLVQPGGSMKLSCAASGFSFSDAWMDWVRQSPEKGLEWVAEIRNKADNHATFYAESVKGRFTISRDDSKSSVYLQMNSLRAEDSGIYYCLLWDYWGQGTTLTVSS
VL: DIVMSQSPSSLAVSAGEKVTMSCKSSQSLLNSRTRKHFLAWYQQKPGQSPKVLIYWASSRESGVPDRFTGSGSGTDFTLTISSVQAEDLAVYYCKQSCNLPWTFGGGTKLEIKR
notes: murine monoclonal antibody from hybridoma; also called HJ152B (biotinylated)
B2: HJ1514 (antibody, V domains shown)
VH: B1 VH with K3N, S28T, F61Y, D75N, A90T, S93T, L99V
VL: B1 VL with S22T, H37N, A40T, Q43R, V52P, T69A, C98Y
notes: murine monoclonal antibody from hybridoma
B3: HJ159 (antibody, V domains shown)
VH: QVQLQQSGPDLVKPGASVKISCKASGYTFIDYYINWAKQRPGQGLEWIGWIFPGSGSTYYNEKFKGKATLTVDKSSSTAYMFLSSLTSEDSAVFFCARYYGSSPFAYWGQGTLVTVSA
VL: DVLMTQTPLSLPVSLGDQASISCRSSQNIVYSNGNTYLEWYLQKPGQSPKLLIYKVSNRFSGVPDRFSGSGSGTYFTLKISRVEAEDLGIYYCFQGSHVPYTFGGGTKLEIKR
notes: as for B2
B4: HJ1513 (antibody, V domains shown)
VH: QIQLQQSGPELVKPGASVKISCKASGYTFTDYYINWVRQRPGQGLEWIGWIYPESFNTYYNEKFKGKATLTVDTSSNTAYMQLSSLTSEDSAVYFCARYYVSSPFAYWGQGTLVTVSA
VL: B3 VL with V30I, Y31H, Y41F, Y75D, I90V
notes: as for B2
B5: HJ1518 (antibody, V domains shown)
VH: B3 VH with D10E, I30S, A37V, T58S, S77R, F82L, F94Y, A118T
VL: B3 VL with T7S, N28S, Y31H, S32R, Y75D, I90V, K112R
notes: as for B2
B6: HJ1531 (antibody, V domains shown)
VH: EVQFVESGGGLVQPKGSLKLSCAASGFSFNIYAMNWVRQAPGKGLEWVARIRSKSNDYATFYADSVKDRFTISRDDSESMLYLQMNNLKIEDTAMYYCVSPYDGALAYWGQGTSVTVSS
VL: DIQMNQSPSSLFASLGDTITITCHASQNINVWLSWYQQKPGNIPKLLIYKASNLHTGVSSRFSGSGSGTDFTLTINNLQPEDIATYYCQQGQSYPLTFGAGTKLELKR
notes: as for B2
B7: HJ1536 (antibody, V domains shown)
VH: EVQFVESGGGLVQPKGSLKLSCEVSGFSFNTYAMNWVRQAPGKGLEWVARIRNKTNNYATFYADSVKDRFTISRDDSKNTLYLQMNNLKAEDTAMYFCASPYDGSFAYWGQGTLVTVSA
VL: B6 VL with F12S, V31I, S59P, D70G, N76S, N77S, Q92H, A100G, L106I
notes: as for B2
B8: HJ158 (antibody, V domains shown)
VH: EVQLMESGGDLVKPGGSLELSCTVSGFTFNNYAMSWIRQTPEKRLEWVATISDGGTNTYFPDNVKGRFTISRDNAKSNLYLQMSHLQSEDTAMYYCAREGRGTWFAYWGQGTLVTVSA
VL: DVVMTQTPLSLPVSLGDQASISCRSSQSLVHINGNTYLHWSLQKPGQSPKLLIYKVSNRFSGVPDRFSGSGSGTDFTLKISRVEAEDLGIYFCSQNTHLPLTFGAGTKLELKR
notes: as for B2

Where a chain is given by its changes, count along the chain named.

8 molecules from patent US20250145697A1 (WASHINGTON UNIVERSITY, published 2025) can be followed below.

As usually defined, the EC50 is the concentration needed to bring the measured effect to its halfway point. As a reminder, the Kd is the equilibrium constant for the complex coming apart. As a reminder, the koff is a measure of how fast the partners let go of each other. As usually defined, the kon is the rate constant with which the complex forms.

One experiment concerns the target T1, ApoE4 amino acids 54-164, expressed on …. In words: yeast display of myc-tagged ApoE4 fragment, antibody staining. The procedure:
(§1) Epitope binding of various anti-ApoE antibodies was evaluated multiple ways. Different sequences of human ApoE were expressed on the surface of yeast by yeast display using different plasmids. Different anti-ApoE antibodies were then assessed to determine binding to the different ApoE sequences by immunofluorescence of the yeast cell surface (Table 4). Because none of the anti-ApoE antibodies tested here recognize murine ApoE, the epitope was further narrowed down by comparison of the murine and human ApoE sequences as shown in Tables 4 and 5. DNA constructs containing different regions of ApoE4 with myc tag were transformed into yeast cells. Yeast cells were incubated with HJ15x to detect binding or anti-myc antibody to detect expression.
B1: the binding result is reported as “binds”.

Take B2: the binding result is recorded as “binds”.

Take B3: the binding result is given as “binds”.

Turning to B4, the binding result is “binds”.

Take B5: the binding result is given as “binds”.

A further experiment deals with T2, ApoE4 amino acids 24-164, expressed on …. Described as above. The procedure: as §1
As for B1, the binding result is given as “binds”.

B2: the binding result was “binds”.

As for B3, the binding result is “binds”.

In the case of B4, the binding result was “binds”.

In the case of B5, the binding result is reported as “binds”.

The target in another experiment is T3, ApoE4 amino acids 1-210, expressed on …. The description is as above. The procedure: as §1
As to B1, the binding result is “binds”.

With B2, the binding result is “binds”.

On to B3, for which the binding result is reported as “binds”.

As for B4, the binding result is “binds”.

For B5, the binding result was “binds”.

A further experiment concerns the target T4, ApoE4 amino acids 1-164, expressed on …. Described as above. The procedure:
as §1
As to B1, the binding result is recorded as “binds”.

B2: the binding result is “binds”.

On to B3, for which the binding result was “binds”.

On to B4, for which the binding result is on record as “binds”.

Consider B5, for which the binding result is recorded as “binds”.

The target in a further experiment is T5, murine ApoE. In words: Western blot of mouse brain lysates. An excerpt:
Brain lysates from apoE KO mice or mice expressing human apoE3, human apoE4 or murine apoE were immunoblotted with HJ151, HJ152, HJ153, and HJ154. A commercial apoE antibody GA-50 was used as a positive control.
On the technique in general: In western blotting, separated proteins are transferred to a membrane and probed.
Regarding B1, the binding result is reported as “no binding”.

For a further experiment, the target named is T6, recombinant alipidated human ApoE2 (human, UniProt P02649 19-317).
T6 construct: mature; full length recombinant protein made in E. coli or bought
In words: direct ELISA on coated recombinant alipidated ApoE (0.5 ug/ml). As to the method: (§2) ELISA dose response curves were generated for several anti-ApoE antibodies. Briefly, plates were coated overnight with full length recombinant alipidated ApoE2, ApoE3, or ApoE4 (0.5 μg/ml). The following days, plates were washed, blocked and then incubated with an anti-ApoE antibody. A goat, anti-mouse IgG-HRP antibody was used for secondary detection. Recombinant alipidated ApoE was either expressed solubly in E. coli and then purified, or purchased from a commercial supplier.
B6: the concentration giving a half-maximal response (EC50) came out at 50 pM.

Take B7: the concentration giving a half-maximal response (EC50) came out at 90 pM.

On to B2, for which the EC50 is approximately 100000 pM.

With B8, the EC50 was 70 pM.

Consider B4, for which the EC50 was approximately 100000 pM.

In the next experiment the target is T7, recombinant alipidated human ApoE3 (human, UniProt P02649 19-317).
T7 construct: mature; full length recombinant protein made in E. coli or bought
T7 sequence (P02649 19-317): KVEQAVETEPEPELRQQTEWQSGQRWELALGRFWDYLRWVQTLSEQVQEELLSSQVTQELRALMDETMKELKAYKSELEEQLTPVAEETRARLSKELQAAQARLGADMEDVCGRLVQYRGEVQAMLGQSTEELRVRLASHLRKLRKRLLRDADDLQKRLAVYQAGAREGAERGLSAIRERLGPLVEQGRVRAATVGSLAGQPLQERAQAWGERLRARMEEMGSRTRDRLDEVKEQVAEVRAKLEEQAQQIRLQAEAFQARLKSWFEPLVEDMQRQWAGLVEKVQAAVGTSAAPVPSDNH
Described as above. As to the method: as §2
For B6, the EC50 turned out to be 50 pM.

Turning to B7, the EC50 was 100 pM.

As for B1, the EC50 was found to be 130 pM.

B2: the concentration giving a half-maximal response (EC50) is 230 pM.

Consider B8, for which the EC50 was found to be 90 pM.

In the case of B3, the EC50 is 1900 pM.

On to B4, for which the EC50 came to 1260 pM.

For B5, the 50% effective concentration (EC50) came to 258 pM.

A further experiment addresses T8, recombinant alipidated human ApoE4 (human, UniProt P02649 19-317).
T8 construct: mature; full length recombinant protein made in E. coli or bought; biotinylated for SPR; position 112 is counted on the mature protein, not on the precursor entry; also called recApoE; non-lipidated ApoE4
Described as above. As to the method:
as §2
Target sequence in this assay (P02649 19-317 C130R): as the sequence (P02649 19-317) above, with C112R counted along it
Regarding B6, the EC50 amounted to 40 pM.

B7: the half-maximal effective concentration (EC50) was 50 pM.

Regarding B1, the concentration for a half-maximal effect (EC50) came to 350 pM.

As for B2, the concentration giving a half-maximal response (EC50) amounted to 40 pM.

On to B8, for which the half-maximal effective concentration (EC50) came out at 60 pM.

Regarding B3, the concentration for a half-maximal effect (EC50) amounted to 320 pM.

On to B4, for which the EC50 worked out at 460 pM.

For the molecule B5, the EC50 was 60 pM.

A further experiment has as its target T8, recombinant alipidated human ApoE4. In words: SPR (Biacore T200), biotinylated ApoE4 captured on anti-biotin mAb chip, antibody injected, 1:1 fit. The procedure: The affinity of several anti-ApoE antibodies for ApoE4 was determined by surface plasmon resonance using a BIAcore T200. Anti-biotin monoclonal mouse antibody was immobilized on a Biacore Series S CM5 sensor chip. Biotinylated recombinant alipidated ApoE4 was then captured on to the chip. Serial dilutions of each antibody were injected at a flow rate of 30 μl/min. Each sample was analyzed, for example, with 3-minute association and 10-minute dissociation. After each injection the chip was regenerated using 3 M MgCl₂ or another appropriate buffer. Binding response was corrected by subtracting the response units (RUs) from a flow cell capturing an irrelevant IgG at similar density. A 1:1 Languir model of simultaneous fitting of Kₒₙ and Koff was used for kinetics analysis. Recombinant alipidated ApoE4 was either expressed in soluble form in E. coli and then purified, or purchased from a commercial supplier.
For orientation: Surface plasmon resonance follows binding to a sensor surface in real time, without labels.
Consider B1, for which the dissociation constant Kd was determined as 249000 pM, the koff was determined as 0.00116 s⁻¹ and the kon worked out at 4660 M⁻¹ s⁻¹.

On to B2, for which the dissociation constant (Kd) was less than 781 pM, the koff was less than 1e-05 s⁻¹ and the kon is 12800 M⁻¹ s⁻¹.

As for B3, the dissociation constant (Kd) came out at 391000 pM, the off-rate (koff) worked out at 0.0074 s⁻¹ and the kon was found to be 18900 M⁻¹ s⁻¹.

Regarding B4, the Kd was 135000 pM, the off-rate (koff) turned out to be 0.000858 s⁻¹ and the kon came to 6360 M⁻¹ s⁻¹.

Take B5: the equilibrium dissociation constant (Kd) amounted to 206000 pM, the koff stood at 0.00946 s⁻¹ and the on-rate (kon) amounted to 45900 M⁻¹ s⁻¹.
